The DeepSol protein solubility set

Assay: soluble on expression in E. coli; label from the status in PepcDB or PDB records

Question: For “MEHPNLEENVGEQDFASNDRFFNSYNIVPRRILQANYDSSLRQMEGYQEEIETDNPINESRGDEAEELENEGCDDRDRCTSRNSIDSEIYENSDEEVYDESMYESEEEYADSPFIIDKMEECLQNHQIGELGSRVMEGLETGTLADVQLEEFCRSRVKPEVTPREFYEELASSGNGDWKKFSMGQFVLSKMKSSKDTAWANTEATVNSLAANLSKANTVGSIVKRVISREYAIEEKDGFPRYNLTNFYNNTTLQGQGAVAQLTSVYVGFLKNLFKPSFKIWLFTYRPSSAYNFDKHFVEYPASVIDTIFGRKLDAFSMEVLGVYLPEDLLVGGCYNVSDASETFLQSLGENASKEVERRRKFRGPARKTCIGAMAAAMKSLRQHHYNAARDTVSYCSARSDCKEHLTWHQLRFYRAHSGKTKEECDLARPDDVMAFCRERAMPRYSLSPNRDATS”, which “soluble on expression in E. coli” value is on record?
Answer: soluble

Question: For “MEHQTTRNVILITEGSLQSSLLKDVLETKLGINVLLITPENLASPFVRNQSISAIVLDYSVITDEVFARYMEFKTPNLTGTLEILINCDKSISTDELFVWGALAGIFYTSDDIQTLQTGIDKVLQGDMWFSRKFAQQYITHLRRHSRPINKNVPA”, which “soluble on expression in E. coli” value is on record?
Answer: not soluble

Question: Which “soluble on expression in E. coli” value does the source give for “MEIDGGPPPFCGVAVDDSYDKSEQHEYDEVDDSPDSTSLPLPSASRSRSVTPVKDMAAGHEAVPEASDNNEKGDTMTTALSQDEFTGFQNSEIQKEEDDDDDEWGDFGEAVVAAAPIQARPQSPPPSLKMDGFNNEDDDDDDDWGAFDQARPSTDRTESSPNSSRSQEARHQQSLDEWGAFENSNDLKANGDEWQAEFSSASDVPPPPSDTVLENLELLDEMLENVEFWHDGFQEECREEEESPEMDVVDIPALFDSENLVEMVNSFEVERQRDSRLWLSLRLVEEAISLKFDWNNSEIRKNHLKSLKINPVTAKKEPRAMNSFFDTSNLLLPTPIQATTTSSSTESSHDSSATATNPKTSSSSPPSSVIDSPSVPAVDFDWDTSGLTNPMNRASKHLHELSKKCRNLVCSVSTNCINLLKCC” here?
Answer: not soluble

Question: For “MEINENPTSFKGFKILQLSDLHNKSFGNNNNRLVKKIIGENPDIIVMTGDMVNAKDNDFEVFINLAEQISKSFDVYYIVGNHEQDLNEDKRKILMDKLSEIGIRVLDNEKVTISRGAESINLYGLWFNLRYYKDLKNEYTKDVFFGTKQIQSILGDLDTDSYNILLTHNPLYADTYSNWGADLTLSGHIHGGMIRIPFVGGLLSPEREFFPEYDAGKYQVNGKILIVNRGLGNGDFGIRVFNPPEISVIMLSNLEHHHHHH”, which “soluble on expression in E. coli” value is on record?
Answer: not soluble

Question: For “MEINIFNTNKKYDVIYADPPWRYNDRKCNGACEHHYDTMTLEEIKKLPIKELCEKDCVLFLWTTYPMLKEALEVMEAWGFKYKSIAFQWIKLNRSGNGKFFGLGRWTRGNTEPCLLAVKGKPSRKSNSVSQLIEYPLGKHSAKPPITRDKIKELMGEECKCLELFARNNIEGWDCWGNEVGKMDEVILEHHHHHH”, which “soluble on expression in E. coli” value is on record?
Answer: soluble

Question: For “MEKDKQQLSVEVARLYYQSDYSQQEIANKLNISRPTISRLLKYAKEKGFVQISIADPFADLDNVGNLLKEKYNLLEAHVVFSPVPEYATITEYISKYAAEYMEKTVKNGDIVGVSWGMTMYEIARKIVPQHVKGVEVVQLKGGISHSSVNTYANETIALFADAFQTTPRNLPLPVIFDNAVTKELVEQDRHIHHIIEMGKQANIAIFTVGTVRDEALLFRLGYFDKDETNLLKKQSVGDICSRFFDGDGNISSEEINKRTIGIELEELKLKKRSILVAGGNRKIKAIDGALRGGYANVLIIDQHTAKELLHYQKG”, which “soluble on expression in E. coli” value is on record?
Answer: not soluble

Question: With “MEKHPGKLFYRLSRLAPGDALPLKRGPKAKVYANPLETQALPPFRQDGGPPLFRAMAHLRPLLPEVGASLTLKDLSQVLYPLAEREGRRGFPSAGEAYPLEAYLVVRRVEGVFPGVYHYFPREHQLFQIASKVEEAAWAEALMGVALDRAAVLLVLTLLPERSEALFGLRGYRYALLEAGYAAGLVLLAAVGQGLAAYPAETFHDEGVARLLGLPEGEYPGVVVVLGR” as the sequence, how does the “soluble on expression in E. coli” value read?
Answer: soluble

Question: Which “soluble on expression in E. coli” value does the source give for “MEKIAILVDVQNVYYTCREQYGRHFDYNQFWSQVTQNRTVVKANAYAIASKDPQQRQFHHILRGIGFEVMLKPFIQRSDGSAKGDWDVGIALDGYELAQEVDTVVLVSGDGDFEPLVTRIAQRFQVKVEVYGVPKLTAQHLIDVASQFHPIEHRLLL” here?
Answer: not soluble

Question: Which “soluble on expression in E. coli” value does the source give for “MEKLKEFRGIKEHLGVFREAVKDAERIGFAGVPGVCTPFAQLFAYAVRDKDNIFIPNTDFSKARKLEVTEYGVELGEISPGNVDVLVLLGGLSMPGIGSDIEDVKKLVEDALEEGGELMGLCYMDMFARAGWYELLDFDCVINADIDGYVLRG” here?
Answer: soluble

Question: Which “soluble on expression in E. coli” value does the source give for “MEKNLYDTNKLIELYKNKESMSGYTTILNVIEFPKALEFNLTVLYLSKSDYRLAIKISTELLKIGEPVPAVYTLISAIANKQRFKGCNAGQTFYAS” here?
Answer: not soluble

Question: Which “soluble on expression in E. coli” value does the source give for “MEKQVRVRYAPSPTGHLHIGNARTALFNYLFARHQDGKFIIRIEDTDVKRNVAGGEESQLKYLKWLGMDWDEGVDVGGEFGPYRQTERLDIYKKLYEDLLERGLAYKCYMTEEELEAEREGQIARGETPRYAGNHRDLTEAQVKEFEAEGRIPSIRFRVPADRDYTFKDIVKDEVAFHSNDFGDFVIVKKDGIPTYNFAVAVDDHLMEITHVLRGDDHISNTPKQMMIYEAFGWDIPQFGHMTLIVNESRKKLSKRDESIIQFIEQYKELGYLPEAIFNFIALLGWSPVGEEEIFSQEEFIKMFDAARLSKSPALFDSQKLKWMNNQYMKKQDLDTVVELSLPHLVKAGRIGETLSEQEQAWIRDVIALYHEQMSFGAEIVELSEMFFKDHVDYEEEGQEVLKGEQVPEVLRAFAGQVEALEAMEPAAIKAAIKAVQKETGHKGKNLFMPIRVATTGQTHGPELPNAIALLGKEKVLNRLQKVIG” here?
Answer: soluble

Question: For “MEKRELKVKTLSEVRDYEIPILKETVFDIFGGLPQAFIGISGEAGAGKTQTLMRLMADIAKREPVLVVLTEQSPHRWKAIFKKYDTNHENVRVVFKYYMDQDFIKELSQREERIIVIDSISGAVSEQKARQVAKDLRSLVEWKNKWLVGALQVRKEGVAGGEGVEHMIEVSYEITYFQLKPQNKWLYEKLKPFGYEVGDYVRLIRNTFDKVRGVQNTNLVVVDISKKNGILEFRELGRKEGEVNHE”, which “soluble on expression in E. coli” value is on record?
Answer: not soluble

Question: With “MEKVYGLIGFPVEHSLSPLMHNDAFARLGIPARYHLFSVEPGQVGAAIAGVRALGIAGVNVTIPHKLAVIPFLDEVDEHARRIGAVNTIINNDGRLVGYNTDGLGYVQALEEEMNITLDGKRILVIGAGGGARGIYFSLLSTAAERIDMANRTVEKAERLVREGDERRSAYFSLAEAETRLAEYDIIINTTSVGMHPRVEVQPLSLERLRPGVIVSDIIYNPLETKWLKEAKARGARVQNGVGMLVYQGALAFEKWTGQWPDVNRMKQLVIEALRR” as the sequence, how does the “soluble on expression in E. coli” value read?
Answer: soluble

Question: Which “soluble on expression in E. coli” value does the source give for “MELDVFVGNTTVLDEDIYQLWLDGHSVSDVVRQRMDAGVLLECEASPDVLQSDTIDQFRTFQMCERLLQSPSKVANQLLFQIPSDQQAMLIERYYEFDSVFAREVLGKKLSKGTKKDLDDVSAKTGIALKSCRRQFDNFKRVFKVVEELKGPLVENIQRHFLLSDDLARDYATIVFFANSRFETGKRKLQYLSFQDFAFCAGQLISYWTVGAVDNMIEDMDVDLEKDFLHDLKDLKVLVNDKDLLDQHKSLVCGQLRGKIKVFNEMEASFKNLSRALVNIASKLTHAKDVRDLFIDLVEKFIEPCRSDKWTSGDLRLFLTHYSTSVHTLEAFRHQVIWDRYMGVIKSCILKMYHD” here?
Answer: soluble

Question: For “MELEFKCSDVGVWKEALSSYDSRIESLNKPELVSLDQFYRIKLPCLLHDRDPNPYLTTSELSQLMKWKLSRGKWRPRLLDFVSSLDDSVVKSASEKAFKSLPDISKAVKELTVLKGVGAATASAVLAAYAPDIAPFMSDEAMEVALGNSKDYSLKQYLLFATKLQDKAKELKLKGEWDGPSDIERALWSCTVRAKSQPEKSSSGKKRKR”, which “soluble on expression in E. coli” value is on record?
Answer: not soluble

Question: Which “soluble on expression in E. coli” value does the source give for “MELKQFKIAVLPLRDKLLSYARKLTDDHSDAEDAVQEVMLKLWNLRPKLDEYHSIEALAMTMTHHTCMDILRGKHPDNLSLDSVQAASPVATPERLLEEKDEFSLMRHIISTLPPLQQTILRMKDVEEYETEEIAEITGCSSEAIRSNLSRARKKVRDIYLQTIQQRKRRNEA” here?
Answer: not soluble

Question: With “MELLCPAGNLPALKAAIENGADAVYIGLKDDTNARHFAGLNFTEKKLQEAVSFVHQHRRKLHIAINTFAHPDGYARWQRAVDMAAQLGADALILADLAMLEYAAERYPHIERHVSVQASATNEEAINFYHRHFDVARVVLPRVLSIHQVKQLARVTPVPLEVFAFGSLCIMSEGRCYLSSYLTGESPNTIGACSPARFVRWQQTPQGLESRLNEVLIDRYQDGENAGYPTLCKGRYLVDGERYHALEEPTSLNTLELLPELMAANIASVKIEGRQRSPAYVSQVAKVWRQAIDRCKADPQNFVPQSAWMETLGSMSEGTQTTLGAYHRKWQ” as the sequence, how does the “soluble on expression in E. coli” value read?
Answer: soluble

Question: For “MELNWALFYGLCPSIKMAHVFDKDEIMGLFESFRKARAKTKAEIKAAKVKARQEVKDATKLEIKRNKLLAQQEKALLKEERKGLKAKRKHEEKLAKTTLEQLKAGKFNKDNVLRYAGAARTLAPIVLPLIYRGITLAKEQANTKRALRLGIDPSDLARFAGHGAELKARIEGIRGSVKVSSLPKGFVADVEQRLDDLTFAVDNAEYMTPELRQRSHRSIANDLDQLARQIQDKIGE”, which “soluble on expression in E. coli” value is on record?
Answer: not soluble

Question: With “MELRIGFGFDSHEFVEGKLLILGGVEIEKDYGLKGHSDGDALLHAITDAILGALGERDIGEIFKDTDPRWKNAPSRIFLEKALEVMSEKGFNISNIDCVIVADRPKIAPHKERIKESLSKLLGIPKERISLKGKRREGFCEGNGLVCMCTVLLVKMLEHHHHHH” as the sequence, how does the “soluble on expression in E. coli” value read?
Answer: soluble

Question: For “MELTFNQAAKGVNKEFTVNIMDTCERCNGKGNEPGTKVQHCHYCGGSGMETINTGPFVMRSTCRRCGGRGSIIISPCVVCRGAGQAKQKKR”, which “soluble on expression in E. coli” value is on record?
Answer: soluble

Question: With “MENGCGKMESFSPQALEMIRSLGTTHIWYIGMLEQATQTNYSDAGILPCHPEIVKGKAGSPYAVRDYYDVSPELATNIPNRMAEFHDLIERTHRAGMGVIMDFVPNHVAREYRSDVKPSGTKDLGEEDDPLVAFSPNNNFYYLPGKCLELDFGERSRTMMPYHEEPARATGNDRFSSHIDKEDWYETVKLNYGIDYLNGGSKHFDPLPDTWIRMRDILLFWASKGIDGFRCDMAEMVPVKFWEWAIPQIRERHSVLFIAEIYRPELYESYLQAGFDYLYDKVGMYDCLRTVICGYGSASDISRVVRQTERFADNMLYFLENHDEQRIASDFFAEDARKALPAVTIAATIGRNPFMLYFAQELGERGMDAEGFSGKDGRTTIFDYWSLDKMQRRINDGRYDTTMLSEEERLLLQSYTRLLHDVCALPSVIQGSFYDLGYANQNNPYFRPNREFAFLRHTTDEILLVAANFAPHEAEIRVIIPEHAFQTMQIKDNAAFLLTDMLSGENSIGCLTQYAPYPLHLPAYGYALHRFRPL” as the sequence, how does the “soluble on expression in E. coli” value read?
Answer: not soluble

Question: For “MENGHLAKVDLTKKIESKSKYNKKLEKYQRRLLALQQILKEEKIAVMLVMEGWDAAGKGGAIKRVTEHLDPRGFQVDPIGAPAPHEKRYHYLQRFWRKIPQYGQITIFDRSWYGRVLVERVEGFATKEEWMRAYDEINDFEKLLTDDHYIIGKFFYHISKEEQLKRFKDREKNPLKRWKITDEDWRNREKWDEYVEAMEDMFEKTSKPNAKWHIIESNDKLYARVKTLKIIISFIEDYFLEHGIELPSYYYEMKEDIEVLQDVGVKE”, which “soluble on expression in E. coli” value is on record?
Answer: not soluble

Question: With “MENKKNDNQQPTVASAHHPFYLGEMKKGMFACWTVTTQCCDDTKVTILDDTGKVYATYTKAFTQSHNLTLLGQGNAIIEGNELRVYVDSSMSSQLIASTNTHLINDLNARKVGAVTDICIEDQTDNDFNDVYINVVAWNKKG” as the sequence, how does the “soluble on expression in E. coli” value read?
Answer: not soluble

Question: With “MENNTNQENSDALENVSFACIRPEILYFGTPVVLISTIDREGKVNLAPISSAWALGYSVVMGIGTESKTMENLRETGECTLNFPEGALWESVERLAPLTGKYPVPQDKADKFRFESNKFGVAGLTPCDSEVVKPPRVLECRLQMEACVKSVRRISEPDVQAGIVEVKVVRVHARNDLIIDGKYIDPKQWKPLIYSFRHYFTLGCDLGKTFRSKI” as the sequence, how does the “soluble on expression in E. coli” value read?
Answer: not soluble
